US5753229

Key:
[1] = biological target: Ag 2.15 (FC-2.15 antigen of breast tumor cells; membrane bands of 160 kDa, 130 kDa and 115 kDa) (human)
[2] = biological target: Ag 2.15 (FC-2.15 antigen of breast tumor cells; membrane bands of 160 kDa, 130 kDa and 115 kDa) (human); assay: cell ELISA on MCF-7 cells after periodate oxidation, against untreated cells

B1: monoclonal antibody FC-2.15 (antibody, V domains shown)
VH: VKLQESGGGLVQPGGSLKLSCAASGFDFSRYWMSYVRQAPGKGLEWIGEIDPDSSTINYTPSLKDKFIISRDNAKNTLYLQMSKVRSEDTALYYCARETGTPFDYWGQGTTLTVSS
VL: DIVMTQSPASLSVATGEKVTIRCITSTDIDDDMNWYEQKPGEPPKLLISEGNTLRPGVPSPFSSSGYGTDFVFTIENTHSEDVADYYCLQSDNMPFTFGSGTKLEIKP
[1]
  Residual clonogenic ability (%) after MAb and rabbit complement: 11.7%
[2]
  % inhibition of reactivity by 10 mM periodate: 47.1%
